What all share (type): biochemical
Assay [1] in a line: Glycosylation of 4-HO-MET by GLY enzymes (UDP-glucose), LC-UV/MS. The note with it: 0.5 mM 4-OH-MET, 1.25 mM UDP-glucose, 25% (v/v) GLY enzyme, 24 h at 30° C.; estimate from UV peak areas. As for the experimental part:
4-HO-MET was dissolved in 100% (v/v) DMSO to a concentration of 10 mM. The solution was stored at −20° C. prior to use.
FastAP phosphatase (1 U/uL) from ThermoFisher Scientific (catalog no. EF0651).
GLY enzyme suspensions contain 10 mM Tris-HCl at pH7.4, 250 mM imidazole and 50% (v/v) glycerol.
(§1) The assay conditions were: • 100 mM Tris-HCl, pH 7.4 • 5 mM MgCl2 • 1 mM KCl • 1.25 mM UDP-glucose • 0.5 mM 4-OH-MET • 5% (v/v) DMSO • 0.1 U/uL Fast AP phosphatase • 25% (v/v) GLY enzyme
(§2) Incubation was 24 house at 30° C. Reactions were terminated adding 3 volumes of 75% (v/v) ethanol.
(§3) LC separation was performed using an Agligen 1290 Infinity II UHPLC equipped with a Phenomenex Kinetex XB-C18 column (1.7 um, 100 angstroms, 100×2.1 mm) and 4-HO-MET was detected by absorbance at 210 nm and 268 nm with an Agilent 1260 Infinity II DAD.
(§4) 0.1% Formic acid in water (A) and 0.1% Formic acid in acetonitrile (B) were used as the mobile phases for the elution gradient, with a flow rate of 0.4 ml/min. Retention time for 4-HO-MET using this type of instrument under these condition was 2.6 min. The system was coupled to an Ultivo Triple Quadrupole MS. To verify the presence of possible glycoside products, as SIM (Selected Ion Monitoring) method was used on the MS to analyse for the m/z 381 (theoretical mass to chart ratio of 4-HO-MET-glucoside) and m/z 219 (theoretical mass to charge ratio of 4-HO-MET).
As standard, 4-HO-MET solutions at a concentrations of 500, 250, 125, 62.5, and 31.25 uM were prepared from the 10 mM stock and used for caliboration.
A representative example of the chromatograms obtained with a wavelength of 268 nm for the standard solutions resuspended in the reaction buffer, and the corresponding MS-SIM signal, is shown in FIG. 16. The peak corresponding to 4-HO-MET is indicated.
When analyzing the GLY reactions, 30 of them gave an additional peak with retention time 2.2 min (i.e. in the expected region for a 4-HO-MET glucoside) and molecular mass compatible with the expected glucoside product, together with a corresponding decrease in substrate concentration, compared to the no-enzyme controls.
The method was repeated using various GLY enzymes to produce 4-HO-MET glucosides.
(§5) The enzymes giving the additional peak putatively corresponding to the 4-HO-MET-β-D-glucoside are listed below. […] A correct quantification of the product is not possible without a standard for the specific molecule. However, based on the assumption that the ratio area-to-concentration in the UV chromatograms will be similar to 4-HO-MET, estimates of the relative abundance for the additional peak are also given, expressed as percentage of converted 4-HO-MET. GLY enzymes hits are ranked according to their estimated conversion efficiency.

Assay [2] in a line: Glycosylation of 5-HO-DMT by GLY enzymes (UDP-glucose), LC-UV/MS. The note with it: conditions of Examples 1 and 2 repeated for 5-HO-DMT. The method, then:
as §1, §2, §3, §4, §5
(§6) The experiments described in Examples 1 and 2 above were repeated for 4-OH-MiPT, 4-HO-DMT and 5-HO-DMT
(§7) Below is the corresponding data for 4-OH-DMT and 5-HO-DMT.

Assay [3] can be described thus: Glycosylation of 4-OH-MiPT by GLY enzymes (UDP-glucose), LC-UV/MS. The conditions noted are these: conditions of Examples 1 and 2 repeated for 4-OH-MiPT; estimate from UV peak areas. The method, then:
as §1, §2, §3, §4, §5, §6
Below is the corresponding data for 4-OH-MiPT.

A short description of assay [4]: Glycosylation of 4-OH-EPT by GLY enzymes (UDP-glucose), LC-UV/MS. The conditions noted are these: conditions of Examples 1 and 2 repeated for 4-OH-EPT; estimate from UV peak areas. As for the experimental part:
as §1, §2, §3, §4, §5
The experiments described in Examples 1 and 2 above were repeated for 4-OH-EPT.
Below is the corresponding data for 4-OH-EPT.

Assay [5] is described as follows: Glycosylation of 4-OH-DMT by GLY enzymes (UDP-glucose), LC-UV/MS. The note with it: conditions of Examples 1 and 2 repeated for 4-HO-DMT; estimate from UV peak areas. As for the experimental part: as §1, §2, §3, §4, §5, §6, §7

This is an account of results in patent publication US20260060994A1, “GLYCOSYLATED COMPOSITIONS AND METHODS OF USE” (Cy Biopharma AG, priority 2023, published 2026).

B1: GLY70: glycosyltransferase (UGT), SEQ ID NO: 2 (protein)
chain: MAKQQEAELIFIPFPIPGHILATIELAKRLISHQPSRIHTITILHWSLPFLPQSDTIAFLKSLIETESRIRLITLPDVQNPPPMELFVKASESYILEYVKKMVPLVRNALSTLLSSRDESDSVHVAGLVLDFFCVPLIDVGNEFNLPSYIFLTCSASFLGMMKYLLERNRETKPELNRSSDEETISVPGFVNSVPVKVLPPGLFTTESYEAWVEMAERFPEAKGILVNSFESLERNAFDYFDRRPDNYPPVYPIGPILCSNDRPNLDLSERDRILKWLDDQPESSVVFLCFGSLKSLAASQIKEIAQALELVGIRFLWSIRTDPKEYASPNEILPDGFMNRVMGLGLVCGWAPQVEILAHKAIGGFVSHCGWNSILESLRFGVPIATWPMYAEQQLNAFTIVKELGLALEMRLDYVSEYGEIVKADEIAGAVRSLMDGEDVPRRKLKEIAEAGKEAVMDGGSSFVAVKRFIDGL
On to B1, for which the “4-OH-MET GLY % (percentage of converted 4-HO-MET)” value in assay [1] is reported as 98.6%. Besides, in assay [2], the “5-OH-DMT GLY %” value is reported as 6%. Also, the “4-OH-MiPT GLY % (percentage of converted 4-OH-MiPT)” value in assay [3] is given as 58.4%. In assay [4], the “4-OH-EPT GLY % (percentage of converted 4-OH-EPT)” value is listed as 80.5%. Besides, the “4-OH-DMT GLY %” value in assay [5] is on record as 89.3%.

B2: GLY87: glycosyltransferase (UGT), SEQ ID NO: 10 (protein)
chain: MGKQEDAELVIIPFPFSGHILATIELAKRLISQDNPRIHTITILYWGLPFIPQADTIAFLRSLVKNEPRIRLVTLPEVQDPPPMELFVEFAESYILEYVKKMVPIIREALSTLLSSRDESGSVRVAGLVLDFFCVPMIDVGNEFNLPSYIFLTCSAGFLGMMKYLPERHREIKSEFNRSFNEELNLIPGYVNSVPTKVLPSGLFMKETYEPWVELAERFPEAKGILVNSYTALEPNGFKYFDRCPDNYPTIYPIGPILNLENKKDDAKTDEIMRWLNEQPESSVVFLCFGSMGSFNEKQVKEIAVAIERSGHRFLWSLRRPTPKEKIEFPKEYENLEEVLPEGFLKRTSSIGKVIGWAPQMAVLSHPSVGGFVSHCGWNSTLESMWCGVPMAAWPLYAEQTLNAFLLVVELGLAAEIRMDYRTDTKAGYDGGMEVTVEEIEDGIRKLMSDGEIRNKVKDVKEKSRAAVVEGGSSYASIGKFIEHVSNVTI
For B2, the “4-OH-MET GLY % (percentage of converted 4-HO-MET)” value in assay [1] is listed as 95.2%. Further, the “5-OH-DMT GLY %” value in assay [2] came to 3%. Further, the “4-OH-MiPT GLY % (percentage of converted 4-OH-MiPT)” value in assay [3] was 76.4%. The “4-OH-EPT GLY % (percentage of converted 4-OH-EPT)” value in assay [4] was 68.9%. For the same molecule, in assay [5], the “4-OH-DMT GLY %” value is 85.3%.
